The record followed here is patent US9523084B2, “Phosphodeoxyribosyl transferase mutant enzymes and uses thereof” (Centre National De La Recherche Scientifique, priority 2012, dated 2016).

Substrate in series [1]: Nc1ccn([C@H]2C[C@H](O)[C@@H](COP(=O)(O)O)O2)c(=O)n1
Briefly: Kinetic parameters of PDT variants, dCMP + A ⇄ dAMP + C. The format is biochemical, Lactobacillus leichmannii. To be noted: adenine as acceptor, fixed, 37.0 °C. How it is done:
(§1) The standard assay (“first protocol for enzyme assay”) for the different NDTs consisted of 5-15 μg of NDT in 50 mM MES buffer pH 6.0, dNxP (dNMP, or dNDP or dNTP) 3 mM and a base 1 mM in a total volume of 50 μL. Assays were incubated for 60 min at 37° C. The products of the reactions were analyzed each 7 min by Rapid resolution high performance liquid chromatography using a reverse-phase column (ZORBAX Eclipse XDB-C18 2.1*50 mm 1.8 μM) with a flow rate of 0.25 ml/min and a linear gradient of 1-12% CH3CN (2-25% CH3CN or 1-90% CH3CN) in 20 mM triethylammonium acetate, pH 7.5, buffer for 7 min. The low resolution mass spectra of the newly synthesized deoxyribonucleotides were obtained on an Agilent 1200 series LC/MS 6120 quadrupole system using an atmospheric electrospray ionization system.
This hypothesis was confirmed by monitoring the specific activity, in the presence of dCDP or dCTP as donor and adenine as acceptor (see table 2 above). The kinetic parameters were determined for the best variants with dCMP, dCDP and dCTP as substrates, at a concentration of A being fixed (see table 3 below).

Series [2] can be described thus: Catalytic activity of PDTT2 to PDTT7, dATP formed (HPLC). The format is biochemical. The following applies: dCTP + A ⇄ dATP + C; 2 mM dCTP, 1 mM Adenine, 37° C., MES 50 mM pH6.0. How it is done:
In specific cases, an alternative protocol was used to perform the enzyme assay. In this second protocol, the dNxP (dNMP, or dNDP or dNTP) concentration was of only 2 mM, instead of 3 mM. All of the other conditions were identical to those of the first protocol.
The catalytic activity of the mutant enzymes PDTT2, PDTT3, PDTT3b, PDTT4, PDTT5, PDTT6, PDTT7 has been compared. Briefly, a sufficient amount of enzyme mutant necessary to obtain a linear reaction over a period of one hour at 37° C. has been mixed in 2 mM dCTP and 1 mM Adenine in a final volume of 50 μL of MES buffer 50 mM pH6.0. Assays were incubated for 60 min at 37° C. The products of the reactions were analyzed each 7 min by Rapid resolution high performance liquid chromatography using a reverse-phase column (ZORBAX Eclipse XDB-C18 2.1*50 mm […]) with a flow rate of 0.25 ml/min and a linear gradient of 1-12% CH3CN (2-25% CH3CN or 1-90% CH3CN) in 20 mM triethylammonium acetate, pH 7.5, buffer for 7 min.

Series [3] can be described thus: Standard enzyme assay (HPLC): specific activities of PDT variants with natural purines and pyrimidines. The format is biochemical. To be noted: donor 3 mM, acceptor 1 mM. How it is done: as §1
Unless specifically mentioned, the results presented hereafter have been obtained by using the first protocol for performing the enzyme assay.

Series [4] in a line: In vitro synthesis of deoxynucleotide analogues: specific activities. The format is biochemical. How it is done:
as §1
The donor concentration was 3 mM and the acceptor 1 mM except for dCTP 2 mM 5-BrU 1 mM and dAMP 2 mM 5-FU 1 mM. Activities are expressed in nanomoles of deoxynucleotides synthesized per min per mg of protein.

B1: Lactobacillus leichmannii nucleoside deoxyribosyltransferase (NDT, SEQ ID NO:1) variant PDTM3, R13 S92 (F13R/D92S), SEQ ID NO:5 (Lactobacillus leichmannii; … (protein)
chain: MPKKTIYFGAGWRTDRQNKAYKEAMEALKENPTIDLENSYVPLDNQYKGIRVDEHPEYLHDKVWATATYNNDLNGIKTNDIMLGVYIPDEESVGLGMELGYALSQGKYVLLVIPDEDYGKPINLMSWGVSDNVIKMSQLKDFNFNKPRFDFYEGAVY
notes: homohexamer (108 kDa)
A word on the Km: it is the concentration of substrate that gives half-maximal velocity. The term kcat denotes the number of substrate molecules converted per active site and unit of time at saturation. B1: in series [1] (other: PDTM3), the Km is 22 mM and the kcat amounted to 0.3 s⁻¹.

B2: Lactobacillus leichmannii nucleoside deoxyribosyltransferase (NDT, SEQ ID NO:1) variant PDTT0, R13 G92 T93 S123 (F13R/D92G/V93T/N123S), SEQ ID NO:8 … (protein)
chain: MPKKTIYFGAGWRTDRQNKAYKEAMEALKENPTIDLENSYVPLDNQYKGIRVDEHPEYLHDKVWATATYNNDLNGIKTNDIMLGVYIPDEEGTGLGMELGYALSQGKYVLLVIPDEDYGKPISLMSWGVSDNVIKMSQLKDFNFNKPRFDFYEGAVY
notes: homohexamer (108 kDa)
For B2, in series [1] (other: PDTT0), the Michaelis constant (Km) worked out at 9.2 mM and the kcat worked out at 0.45 s⁻¹.

B3: PDTT3: PDTT2 mutant with Proline at position 93 and Lysine at position 157, SEQ ID NO:38 (protein)
chain: MPKKTIYFGAGWRTDRQNKAYKEAMEALKENPTIDLENSYVPLDNQYKGIRVDEHPEYLHDKVWATATYNNDLNGIKTNDIMLGVYIPDEQGPGLGMELGYALSQGKYVLLVIPDEDYGKPISLMSWGVSDNVIKMSQLKDFNFNKPRFDFYEGAVK
modifications: amino acid sequence of PDTT3 (G92/S123/R13/P93/K157/Q91)
As for B3, the “Catalytic activity (nmol of dATP formed/min/mg of enzyme protein)” value in series [2] was 2.7 nmol of dATP formed/min/mg of enzyme protein.

B4: PDTM5: NDT mutant Q13 S92 S123, SEQ ID NO:7 (protein)
chain: MPKKTIYFGAGWQTDRQNKAYKEAMEALKENPTIDLENSYVPLDNQYKGIRVDEHPEYLHDKVWATATYNNDLNGIKTNDIMLGVYIPDEESVGLGMELGYALSQGKYVLLVIPDEDYGKPISLMSWGVSDNVIKMSQLKDFNFNKPRFDFYEGAVY
modifications: PDTM5 enzyme mutant
Regarding B4, the Specific activity is recorded as 206 nanomoles of deoxynucleotides synthesized per min per mg of protein in series [3] (dAMP + C ⇄ dCMP + A); <0.1 nanomoles of deoxynucleotides synthesized per min per mg of protein in series [3] (dAMP + Hx ⇄ dIMP + A); 296 nanomoles of deoxynucleotides synthesized per min per mg of protein in series [3] (dCMP + A ⇄ dAMP + C); 1.7 nanomoles of deoxynucleotides synthesized per min per mg of protein in series [3] (dCMP + T ⇄ dTMP + C); 81 nanomoles of deoxynucleotides synthesized per min per mg of protein in series [3] (dGMP + A ⇄ dAMP + G); 47 nanomoles of deoxynucleotides synthesized per min per mg of protein in series [4] (dAMP + 5-FU → A + 5-F-dUMP, dAMP 2 mM 5-FU 1 mM). For the same molecule, the Specific activity is recorded as 78 nanomoles of deoxynucleotides synthesized per min per mg of protein in series [4] (dCMP + 2,6-D → C + 2,6-DMP, donor 3 mM, acceptor 1 mM); 19 nanomoles of deoxynucleotides synthesized per min per mg of protein in series [4] (dCMP + 2,6-chloropurine → C + 2,6-dichloropurine 2′-deoxyribose 5′-monophosphate, donor 3 mM, acceptor 1 mM); 26 nanomoles of deoxynucleotides synthesized per min per mg of protein in series [4] (dCMP + 5-BrU → C + 5-Br-dUMP, donor 3 mM, acceptor 1 mM); 15 nanomoles of deoxynucleotides synthesized per min per mg of protein in series [4] (dCMP + 6-chloropurine → C + 6-chloropurine 2′-deoxyribose 5′-monophosphate, donor 3 mM, acceptor 1 mM).

B5: Lactobacillus leichmannii nucleoside deoxyribosyltransferase (NDT, SEQ ID NO:1) variant PDTM5, Q13 S92 S123 (F13Q/D92S/N123S), SEQ ID NO:7 (Lactobacillus … (protein)
chain: MPKKTIYFGAGWQTDRQNKAYKEAMEALKENPTIDLENSYVPLDNQYKGIRVDEHPEYLHDKVWATATYNNDLNGIKTNDIMLGVYIPDEESVGLGMELGYALSQGKYVLLVIPDEDYGKPISLMSWGVSDNVIKMSQLKDFNFNKPRFDFYEGAVY
notes: homohexamer (108 kDa)
On to B5, for which, in series [1] (other: PDTM5), the Km amounted to 12 mM and the turnover number (kcat) is 1.99 s⁻¹.

B6: PDTT4: PDTT2 mutant with Serine at position 93 and Lysine at position 157, SEQ ID NO:40 (protein)
chain: MPKKTIYFGAGWRTDRQNKAYKEAMEALKENPTIDLENSYVPLDNQYKGIRVDEHPEYLHDKVWATATYNNDLNGIKTNDIMLGVYIPDEQGSGLGMELGYALSQGKYVLLVIPDEDYGKPISLMSWGVSDNVIKMSQLKDFNFNKPRFDFYEGAVK
modifications: amino acid sequence of PDTT4 (G92/S123/R13/S93/K157/Q91)
On to B6, for which, in series [2], the “Catalytic activity (nmol of dATP formed/min/mg of enzyme protein)” value is on record as 10.4 nmol of dATP formed/min/mg of enzyme protein.

B7: Lactobacillus leichmannii nucleoside deoxyribosyltransferase (NDT, SEQ ID NO:1) variant PDTM4, R13 S92 S123 (F13R/D92S/N123S), SEQ ID NO:6 (Lactobacillus … (protein)
chain: MPKKTIYFGAGWRTDRQNKAYKEAMEALKENPTIDLENSYVPLDNQYKGIRVDEHPEYLHDKVWATATYNNDLNGIKTNDIMLGVYIPDEESVGLGMELGYALSQGKYVLLVIPDEDYGKPISLMSWGVSDNVIKMSQLKDFNFNKPRFDFYEGAVY
notes: homohexamer (108 kDa)
Consider B7, for which, in series [1] (other: PDTM4), the Michaelis constant (Km) stood at 11 mM and the kcat was 2.1 s⁻¹.

B8: PDTT5: PDTT3 mutant with Arginine at position 157, SEQ ID NO:41 (protein)
chain: MPKKTIYFGAGWRTDRQNKAYKEAMEALKENPTIDLENSYVPLDNQYKGIRVDEHPEYLHDKVWATATYNNDLNGIKTNDIMLGVYIPDEQGPGLGMELGYALSQGKYVLLVIPDEDYGKPISLMSWGVSDNVIKMSQLKDFNFNKPRFDFYEGAVR
modifications: amino acid sequence of PDTT5 (G92/S123/R13/P93/R157/Q91)
As for B8, the “Catalytic activity (nmol of dATP formed/min/mg of enzyme protein)” value in series [2] is on record as 27 nmol of dATP formed/min/mg of enzyme protein.

B9: PDTT3b: PDTT2 mutant with Glycine (G) at position 93 and Lysine at position 157, SEQ ID NO:39 (protein)
chain: MPKKTIYFGAGWRTDRQNKAYKEAMEALKENPTIDLENSYVPLDNQYKGIRVDEHPEYLHDKVWATATYNNDLNGIKTNDIMLGVYIPDEQGGGLGMELGYALSQGKYVLLVIPDEDYGKPISLMSWGVSDNVIKMSQLKDFNFNKPRFDFYEGAVK
modifications: amino acid sequence of PDTT3b (G92/S123/R13/G93/K157/Q91)
Consider B9, for which, in series [2], the “Catalytic activity (nmol of dATP formed/min/mg of enzyme protein)” value was 6.5 nmol of dATP formed/min/mg of enzyme protein.
